Numbering of substitutions follows the chain as printed. Numbers in names are those of the source.
B1: RNase A: negative control protein, obtained from Sigma (protein, UniProt P61823 27-150, looked up)
Ribonuclease pancreatic: KETAAAKFERQHMDSSTSAASSSNYCNQMMKSRNLTKDRCKPVNTFVHESLADVQAVCSQKNVACKNGQTNCYQSYSTMSITDCRETGSSKYPNCAYKTTQANKHIIVACEGNPYVPVHFDASV
B2: C106A: DJ-1 cysteine-to-alanine mutant at cysteine 106 (protein, UniProt Q99497 1-189, looked up, variant C106A)
chain: MASKRALVILAKGAEEMETVIPVDVMRRAGIKVTVAGLAGKDPVQCSRDVVICPDASLEDAKKEGPYDVVVLPGGNLGAQNLSESAAVKEILKEQENRKGLIAAIAAGPTALLAHEIGFGSKVTTHPLAKDKMMNGGHYTYSENRVEKDGLILTSRGPGTSFEFALAIVEALNGKEVAAQVKAPLVLKD
B3: C53A: DJ-1 cysteine-to-alanine mutant at cysteine 53 (protein, UniProt Q99497 1-189, looked up, variant C53A)
chain: B2 chain with C53A, A106C

How the values were obtained:
[1] = molecular target: αSyn (Homo sapiens, UniProt P37840); experiment: αSyn protofibril formation assay in vitro; format: biochemical; details: 200 μM αSyn, 100 μM test protein (molar ratio 1:2), 2 h at 55° C.
Procedure: The analysis of DJ-1 chaperone function to a candidate DJ-1 substrate, αSyn (FIG. 23) was extended.
αSyn protofibril and fibril formation assays were performed essentially as described (Uversky et al.). Briefly, protofibrils were formed by incubation of 200 μM WT synuclein with 100 μM DJ-1 or control chaperone protein in PBS for 2 h at 55° C. Samples were mixed with SDS loading buffer and analyzed by SDS-PAGE and Western blotting using αSyn LB509 antibody (Zymed). Quantitation of high molecular weight αSyn was performed using NIH Image J. Integrated pixel intensity of high molecular weight synuclein for each sample was normalized to monomeric synuclein intensity.

[2] = molecular target: T1, citrate synthase (CS) (Sus scrofa, UniProt P00889); experiment: suppression of heat-induced aggregation of citrate synthase (chaperone assay); format: biochemical; details: for redox regulation: chaperone activity in the CS aggregation assay after DTT: preincubation with 0.5 mM DTT for 10 min at 4° C.; for chaperone activity: suppression of heat-induced CS aggregation: 0.8 μM CS, 43° C., DJ-1 0.5-4.0 μM
T1 construct: purchased Sigma
T1 sequence (P00889 28-464): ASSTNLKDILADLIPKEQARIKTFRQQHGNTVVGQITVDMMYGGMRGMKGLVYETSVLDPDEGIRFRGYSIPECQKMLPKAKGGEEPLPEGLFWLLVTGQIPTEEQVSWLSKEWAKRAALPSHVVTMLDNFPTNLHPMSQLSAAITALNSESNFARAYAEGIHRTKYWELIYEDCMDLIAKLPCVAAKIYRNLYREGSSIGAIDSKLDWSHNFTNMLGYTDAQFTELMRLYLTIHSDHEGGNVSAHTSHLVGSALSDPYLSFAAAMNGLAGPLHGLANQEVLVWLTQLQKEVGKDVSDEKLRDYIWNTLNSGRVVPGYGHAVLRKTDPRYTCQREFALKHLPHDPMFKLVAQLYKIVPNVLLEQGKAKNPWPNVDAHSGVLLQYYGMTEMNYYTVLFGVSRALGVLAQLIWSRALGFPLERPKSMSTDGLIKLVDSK
Procedure: (§1) FIG. 22 illustrates that DJ-1 is a redox-dependent molecular chaperone. (A) Aggregation of CS was monitored at 43° C. after addition of either 0.8 μM CS alone (black), or along with 8.0 μM RNase A (purple), 0.5 μM DJ-1 (aqua), 2.0 μM DJ-1 (blue), 4.0 μM DJ-1 (red), or 2.0 μM Hsp27 (green). (B) Aggregation of 0.8 μM CS after 30 min at 4° C. […] (C) Aggregation of insulin (26 μM) B chains induced by 20 mM DTT at 25° C. Insulin alone (black) or in the presence of 4.0 μM RNase A (purple), 0.5 μM DJ-1 (aqua), 2.0 μM DJ-1 (blue), 4.0 μM DJ-1 (red), or 2.0 μM Hsp27 (green). (D) CS thermal aggregation (unfilled bar) is suppressed by 4 μM DJ-1 (black bar), but chaperone activity is abrogated upon incubation of DJ-1 with 0.5 mM DTT for 10 min at 4° C. (gray bar). Further treatment of DTT-reduced DJ-1 with 10 mM H2O2 for 10 min at 4° C. leads to reactivation of CS suppression (hatched bar).
To test the redox regulation of DJ-1, the inventors assayed chaperone activity in the CS aggregation assay in the presence or absence of the reducing agent DTT. […] (FIG. 22D). […] To further test whether redox regulation might govern DJ-1 chaperone activity, reactivation studies using reduced DJ-1 were performed. DTT-reduced DJ-1 was incubated with H2O2 (10 mM in aggregation buffer for 10 min at 4° C. followed by dialysis against aggregation buffer for 2 h), and subsequently chaperone activity was measured in the CS thermal aggregation assay. […] This was not an indirect effect of residual H2O2 on CS aggregation, as H2O2 treatment of CS increased aggregation (unpublished data).
(§2) Aggregation assays. CS aggregation was performed in 40 mM HEPES (pH 7.8), 20 mM potassium hydroxinde, 50 mM potassium chloride, and 10 mM ammonium sulfate, and monitored in a thermostat-controlled fluorescence spectrophotometer with excitation and emission wavelengths at 500 nm and slit widths at 2.5 nm. Insulin aggregation was performed as described (Giasson et al. 2000). CS, insulin, RNase A, and GST were obtained from Sigma; human Hsp27 was obtained from Stressgen.

[3] = system: insulin; experiment: aggregation suppression of reduced insulin (DTT-induced B chain aggregation); format: biochemical; details: 20 mM DTT
Procedure: as §1, §2

[4] = system: glutathione S-transferase (GST); details: GST 0.4 μM, test protein 2 μM
Procedure: DJ-1 chaperone activity was quantified in the suppression of heat-induced aggregation of citrate synthase (CS) and glutathione S-transferase (GST), two well-characterized protein chaperone assays. These proteins lose their native conformation and undergo aggregation during incubation at 43° C. and 60° C., respectively.

[5] = system: DJ-1-deficient ES cells; experiment: rescue of DJ-1-deficient ES cells from H2O2 toxicity, MTT assay; details: transient transfection of expression plasmid, 10 μM H2O2 for 15 h, vs vector alone
Procedure: 48 h after transfection, cells were exposed to 10 μM H2O2 for 15 h and then assayed by MTT reduction. […] Data are shown as the mean±SEM and were analyzed by ANOVA with Fisher's post-hoc test.
(C) DJ-1-deficient ES cells were transiently transfected with vector alone, WT DJ-1, or DJ-1 cysteine mutants, and exposed to 10 μM H2O2 for 15 h followed by MTT assay. […] Data are shown as the mean±SEM and were analyzed by ANOVA with Fisher's post-hoc test. * p<0.05.
ES cells plated in 96-well format (2.3×10^4 cells/well) were treated for 15 hours with H2O2 in ES media deficient in β-mercaptoethanol (Abeliovich et al. 2000). Cell viability (as a percent of untreated control) was determined by MTT assay in triplicate (Fezoui et al. 2000).
The inventors further investigated the activity of the cysteine-mutant forms of human DJ-1 in vivo in the complementation of DJ-1-deficient ES cells.

[6] = system: Undifferentiated ES cells; experiment: rescue from Q333P mutant NFL toxicity in undifferentiated ES cells, MTT reduction assay; format: cell-based; details: 72 h after transfection
Procedure: FIG. 30 depicts the additional studies of DJ-1 mutations. […] Cells from FIG. 4M were quantified via ToPro3 nuclear staining and are expressed as number of cells per field from ten independent fields in each of three wells. […] GFP positive transfected cells from FIG. 5A-5L were quantified and are expressed as number of transfected cells per field from ten independent fields in each of three wells. […] After 72 h, cells were assayed by MTT reduction assay (which detects reduction of 3-(4,5-dimethylthiazol-2-yl)-2,5-diphenyltetrazolium bromide by metabolic enzymes) (Martinat et al. 2004). […] Undifferentiated ES cells were transfected with Q333P mutant NFL along with WT human DJ-1, C53A mutant DJ-1, or vector control. After 72 h, cells were assayed by MTT reduction assay (Martinat et al. 2004). […] Cells were differentiated for 72 h and lysed to produce Triton X-100-soluble and -insoluble fractions. Lysates were exposed to Western blotting with an antibody against transfected human NFL.

Row | Molecule | inhibition of αSyn protofibril formation [1] | redox regulation: chaperone activity in the CS aggregation assay after DTT [2] | chaperone activity: suppression of reduced insulin aggregation [3] | suppression of GST thermal aggregation [4] | chaperone activity: suppression of heat-induced CS aggregation [2] | viability of H2O2-treated DJ-1 knockout cells after transfection [5] | rescue from Q333P mutant NFL toxicity [6]
1 | Hsp27: well-described small cytoplasmic chaperone, human Hsp27, obtained from Stressgen; positive control [reference compound] | failed to inhibit the generation of αSyn protofibrils | did not modify suppression of CS aggregation | effectively inhibited the aggregation of insulin | suppressed | – | – | –
2 | B1 | – | – | neither DJ-1 nor the negative control protein RNase A displayed chaperone activity | – | failed to demonstrate chaperone activity | – | –
3 | B2 | – | unaffected | – | – | does not alter the basal activity | robustly rescued DJ-1 knockout cells from H2O2 toxicity | –
4 | B3 | – | – | – | – | completely abrogates chaperone activity | failed to protect from H2O2 toxicity | unable to rescue cells from Q333P mutant NFL toxicity

— patent US20060153807A1, “Vector-mediated gene regulation in midbrain dopamine neurons” (priority 2005, published 2006)
